Measurements as given in patent US20260263364A1, “OSTEOCLAST-DERIVED MICROVESICLES AND METHODS OF PROMOTING BONE REGENERATION” (The United States Government as represented by the …, priority 2023, published 2026).

System: osteoclastic cells
Experiment: Release of soluble EfnB2 into CM by osteoclastic cells (Western blots)
Format: cell-based
Source text: Regarding the EfnB2, EfnB2 on the plasma membrane of osteoclasts binds the EphB4 receptor on the cell surface of nearby osteoprogenitors to trigger the EfnB2-EphB4 bidirectional signaling, which on the one hand suppresses osteoclastic resorption through activation of the reverse signaling of EfnB2 in osteoclasts and on the other hand upregulates the EphB4 forward signaling in osteoblasts to stimulate osteoblast maturation and activity. However, this bidirectional signaling mechanism requires direct cell-cell contact between osteoclasts and osteoprogenitors. Given the fact that very few osteoblasts or progenitors are present at the remodeling site that could make direct contact with the resorbing osteoclast, this cell-cell contact-dependent bidirectional mechanism is unlikely a major mechanism for the coupled bone formation under normal situations. It also could not be responsible for the soluble osteoanabolic activity of osteoclasts. […] Treatment with EfnA4-fc or PTH increased its releases each by ~75% and the large majority of the released EfnB2 was associated with the MV fraction. As an initial test of the possibility that EfnB2 is a candidate for an osteoanabolic component, it was tested whether the osteogenic activity of CM or that of MV could be blocked by pretreatment with anti-EfnB2 antibody. […]

B1: PTH: used to increase bone turnover / stimulate bone remodeling (protein, UniProt P01270 32-115, looked up)
Parathyroid hormone: SVSEIQLMHNLGKHLNSMERVEWLRKKLQDVHNFVALGAPLAPRDAGSQRPRKKEDNVLVESHEKSLGEADKADVNVLTKAKSQ
modifications: Parathyroid hormone
notes: used to increase bone turnover / stimulate bone remodeling
  increase of release of soluble EfnB2: ~ 75%
